This assay concerns the target CA tri-hexamer_(center) (HIV-1). The assay is described as follows: ITC.

On to “NUP153^1411–1475/1425–1464△ peptide (25 aa) (from UniProt P49790 1411-1475)”, for which the Kd was 870 nM.

As usually defined, the Kd is the concentration at which binding is half-saturated.

The values above are taken from paper PMC10068764.
